The record followed here is paper PMC10580383, “Development of Melanocortin 4 Receptor Agonists by Exploiting Animal-Derived Macrocyclic, Disulfide-Rich Peptide Scaffolds” (ACS Pharmacology & Translational Science, 2023).

For test [1], the target named is human melanocortin 4 receptor with LgBit fused at the C-terminus (human) (UniProt P32245).
The target in test [2] is T1, mouse melanocortin 4 receptor (MC4R) (Mus musculus, UniProt P56450).
T1 construct: expressed in transfected cells; host or cells: HEK293 / HEK293T, transient transfection
The experiment in a line: cAMP second messenger quantification assay (Cisbio HTRF cAMP Gs kit). It counts as cell-based. As to the method:
Figure 3 Functional cAMP assay of synthesized peptide analogues targeting MC4R. The accumulation of adenylyl cyclase-catalyzed cAMP of (A) tachylplesin-1-like peptides (Ta1LPs, green), (B) protegrin-4-like peptides ([…], pink), (C) arenicin-3-like peptides (Ar3LPs, orange), and (D) gomesin-like peptides (GoLPs, blue) was measured in HEK293 cells transiently expressing mouse melanocortin 4 receptor (MC4R). […] Data are from three independent experiments and are shown as mean ± SEM.
Assays were performed on cells transiently expressing mouse MC4R-EGFP. BamHI and SacI restriction sites were used to clone mouse MC4R N-terminally into a pEGFP-N1 vector. Peptide ligands were assayed for […] in a 384-well format and triplicate according to the Cisbio protocol. Briefly, 5 μL containing 10,000 cells per well was incubated with 5 μL of peptide solutions prepared 2× in 1× stimulation buffer. Following an incubation of peptide ligands at 37 °C for 30 min, d2-labeled cAMP and cryptate-labeled antibody (5 μL of each) were added to the mixture and further incubated for at least 1 h at room temperature. Subsequently, cAMP levels were quantified on a Flexstation 3 (Molecular Devices, San Jose, USA) using homogeneous time-resolved fluorescence resonance energy transfer and the ratio 665/620 nm. Samples were measured in technical triplicates.
Data analysis was performed with GraphPad Prism (GraphPad Software, San Diego). The potency (EC50) and maximum efficacy (Emax) values of peptide ligands were derived from functional data fitted to three- or four-parameter nonlinear regression curves constrained to a bottom of zero.

Another test concerns mouse MC4R-EGFP. The experiment in a line: kinetic BRET β-arrestin-2 recruitment assay (MC4R-EGFP / β-arrestin-2-nanoluciferase). Type of test: cell-based. To be noted: ligand 10 μM; HEK293 cells, MC4R-EGFP and β-arrestin-2-NLuc; mean ligand-induced BRET from 312 to 2433 s, NDP-α-MSH set as 100; three independent experiments. As to the method: Considering the physiological relevance of β-arrestins and their critical role in orchestrating MC4R signaling, we measured β-arrestin-2 recruitment in a kinetic bioluminescence resonance energy transfer (BRET) assay. We screened at a ligand concentration of 10 μM in HEK293 cells transiently expressing MC4R coupled to EGFP, and β-arrestin-2 fused to nanoluciferase. […] By contrast, Pr4LP1, Ar3LP1, Ar3LP2, and GoLP1 recruited β-arrestin-2 with greater efficiencies (>130%) than NDP-α-MSH (Figures 4 and S5B,C).
Figure 4 β-Arrestin-2 recruitment of designed MC4R peptide analogues. BRET assay was used to measure the transient interaction of MC4R-EGFP with β-arrestin-2-nanoluciferase (NLuc) in HEK293 cells over time following cell treatment with 10 μM of tachyplesin-1-like peptides (Ta1LPs, green), protegrin-4-like peptides (Pr4LPs, pink), arenicin-3-like peptides (Ar3LPs, orange), and gomesin-like peptides (GoLPs, blue). Relative BRET quantification was determined by calculating the mean value of ligand-induced BRET for each peptide ligand from 312 to 2433 s which was then divided by the mean value of ligand-induced BRET of NDP-α-MSH set as 100. Data are shown as mean ± SEM from three independent experiments.
BRET assay was performed as previously described.[32] Briefly, β-arrestin-2-nano luciferase and mouse MC4R-EGFP were cotransfected in a 1:10 ratio. 16 h post-transfection, 50,000 cells in 100 μL of phenol red-free DMEM with 10% FBS per well were transferred into white clear bottom 96-well plates and incubated overnight. On the day of the assay, cells were incubated for 1 h at 37 °C in phenol red- and serum-free DMEM. Furimazine (diluted 1:50) and peptide ligands (4×) were prepared in Hank’s balanced salt solution (HBSS), respectively. Prior to establishing the baseline and measuring kinetic BRET, furimazine was incubated for 5 min at 37 °C. The ability of peptide ligands to induce β-arrestin-2 recruitment was assessed by measuring light emissions for EGFP (510 nm) and nanoluciferase (460 nm) over 35 min using Flexstation 3 (Molecular Devices, San Jose, USA). The BRET ratio was calculated as emission EGFP (510 nm)/emission nanoluciferase (460 nm). The ligand-induced BRET was calculated by subtracting […].
(BRET reads energy transfer from a luciferase to a nearby fluorophore.)

For test [3], the target named is mouse melanocortin 4 receptor fused to EGFP (mouse) (UniProt P56450).
Test [4] shares this target. The source holds these as a separate data set.
For test [5], the target named is human melanocortin 4 receptor with C-terminally fused SmBit (human) (UniProt P32245).

Where a SMILES comes first, the peptide text is derived from it. Bridges are numbered along the chain shown (N, C = ends). Where no end group is shown, it is not given here. [ ]: non-standard residue; d: D form.

mouse melanocortin 4 receptor fused to EGFP (mouse), sequence (P56450 whole entry, the tested form may be a part): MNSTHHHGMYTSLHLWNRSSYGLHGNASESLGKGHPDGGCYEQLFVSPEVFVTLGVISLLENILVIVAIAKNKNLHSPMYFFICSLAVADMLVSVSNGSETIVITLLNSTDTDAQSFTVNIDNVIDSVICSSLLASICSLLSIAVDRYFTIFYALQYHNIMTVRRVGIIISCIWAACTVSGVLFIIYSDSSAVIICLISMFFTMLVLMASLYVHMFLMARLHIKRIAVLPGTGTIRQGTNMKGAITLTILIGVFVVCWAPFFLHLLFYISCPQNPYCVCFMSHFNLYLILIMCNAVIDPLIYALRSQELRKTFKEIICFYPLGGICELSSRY
human melanocortin 4 receptor with C-terminally fused SmBit (human), sequence (P32245 whole entry, the tested form may be a part): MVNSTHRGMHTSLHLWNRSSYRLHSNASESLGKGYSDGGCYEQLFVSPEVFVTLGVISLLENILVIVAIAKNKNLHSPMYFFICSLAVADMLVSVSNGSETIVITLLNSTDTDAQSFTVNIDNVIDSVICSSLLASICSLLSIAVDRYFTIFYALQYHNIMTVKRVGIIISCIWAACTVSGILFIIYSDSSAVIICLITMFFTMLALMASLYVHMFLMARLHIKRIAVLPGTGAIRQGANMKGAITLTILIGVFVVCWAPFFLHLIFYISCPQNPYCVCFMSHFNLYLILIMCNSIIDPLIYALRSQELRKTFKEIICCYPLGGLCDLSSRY
human melanocortin 4 receptor with LgBit fused at the C-terminus (human), sequence (P32245 whole entry, the tested form may be a part): as above
T1 sequence (P56450 whole entry): as the sequence (P56450 whole entry, the tested form may be a part) above

In test [1], α-MSH (peptide) returned a coupling of Gαs-SmBit to MC4R-LgBit (nanoluciferase complementation, live cells): EC50 of 1 nM.

Take `CC(C)[C@@H]1NC(=O)[C@H](CCCNC(=N)N)NC(=O)[C@H](Cc2c[nH]c3ccccc23)NC(=O)[C@H](CCCNC(=N)N)NC(=O)[C@@H](Cc2ccccc2)NC(=O)[C@H](Cc2c[nH]cn2)NC(=O)[C@H](Cc2ccc(O)cc2)NC(=O)[C@H](C(C)C)NC(=O)[C@@H]2CSSC[C@H](NC1=O)C(=O)N[C@@H](Cc1ccc(O)cc1)C(=O)N[C@@H](CCCNC(=N)N)C(=O)N[C@@H](CCCNC(=N)N)C(=O)N[C@H](C(=O)N[C@@H](CC(N)=O)C(N)=O)CSSC[C@H](NC(=O)[C@H](Cc1ccccc1)NC(=O)CN)C(=O)N[C@@H](Cc1c[nH]c3ccccc13)C(=O)N[C@@H](Cc1ccc(O)cc1)C(=O)N[C@@H](C(C)C)C(=O)N2` [Ar3LP5] (H-GFCWYVCVYH[dF]RWRVCYRRCN-NH2; disulfide 3-20, 7-16): in test [2], the EC50 (usually the concentration needed to bring the measured effect to its halfway point) came out at 251 nM. Moreover, the Emax (as a rule, the maximal effect, on the per cent scale that the assay sets) in test [2] (HEK293, read-out: efficacy cAMP Emax ± SD) came out at 99 ± 8%. The “BRET efficacy of β-arrestin-2 recruitment relative to NDP-α-MSH” value in the test with mouse MC4R-EGFP was “less than 60%”.

B1: arenicin-3-like peptide 4 (peptide)
peptide: GFCWYVCVYH[dF]HWRVCYRRCN-NH2
modifications: disulfide 7-16, 3-20
Take B1: the recruitment of β-arrestin-2-nanoluciferase to MC4R-EGFP (kinetic BRET, HEK293 cells), 10 μM peptide: BRET efficacy relative to NDP-α-MSH (100) in test [3] is under 60%. Also, in test [4], the cAMP accumulation (Cisbio HTRF) in HEK293 cells transiently expressing mouse MC4R-EGFP: EC50 turned out to be 820 nM and the cAMP accumulation (Cisbio HTRF) in HEK293 cells transiently expressing mouse MC4R-EGFP: Emax (normalised to NDP-α-MSH) is 106%.

B2: arenicin-3-like peptide 5 (peptide)
peptide: GFCWYVCVYH[dF]RWRVCYRRCN-NH2
modifications: disulfide 7-16, 3-20
In test [3], B2 had a recruitment of β-arrestin-2-nanoluciferase to MC4R-EGFP (kinetic BRET, HEK293 cells), 10 μM peptide: BRET efficacy relative to NDP-α-MSH (100) of under 60%. In addition, in test [4], the cAMP accumulation (Cisbio HTRF) in HEK293 cells transiently expressing mouse MC4R-EGFP: EC50 came to 260 nM and the cAMP accumulation (Cisbio HTRF) in HEK293 cells transiently expressing mouse MC4R-EGFP: Emax (normalised to NDP-α-MSH) amounted to 99%.

B3: arenicin-3-like peptide 2 (peptide)
peptide: GFCWYVCVYPH[dF]HWVCYRRCN-NH2
modifications: disulfide 7-16, 3-20; N-terminus assumed
SMILES: CC(C)[C@@H]1NC(=O)[C@H](Cc2c[nH]c3ccccc23)NC(=O)[C@H](Cc2c[nH]cn2)NC(=O)[C@@H](Cc2ccccc2)NC(=O)[C@H](Cc2c[nH]cn2)NC(=O)[C@@H]2CCCN2C(=O)[C@H](Cc2ccc(O)cc2)NC(=O)[C@H](C(C)C)NC(=O)[C@@H]2CSSC[C@H](NC1=O)C(=O)N[C@@H](Cc1ccc(O)cc1)C(=O)N[C@@H](CCCNC(=N)N)C(=O)N[C@@H](CCCNC(=N)N)C(=O)N[C@H](C(=O)N[C@@H](CC(N)=O)C(N)=O)CSSC[C@H](NC(=O)[C@H](Cc1ccccc1)NC(=O)CN)C(=O)N[C@@H](Cc1c[nH]c3ccccc13)C(=O)N[C@@H](Cc1ccc(O)cc1)C(=O)N[C@@H](C(C)C)C(=O)N2
For the molecule B3, the recruitment of β-arrestin-2-nanoluciferase to MC4R-EGFP (kinetic BRET, HEK293 cells), 10 μM peptide: BRET efficiency relative to NDP-α-MSH (100) in test [3] is over 130%. In test [4], the cAMP accumulation (Cisbio HTRF) in HEK293 cells transiently expressing mouse MC4R-EGFP: EC50 came out at 18 nM and the cAMP accumulation (Cisbio HTRF) in HEK293 cells transiently expressing mouse MC4R-EGFP: Emax (normalised to NDP-α-MSH) worked out at 95%.

B4: arenicin-3-like peptide 1 (peptide)
peptide: GFCWYVCPH[dF]HWCYRRCN-NH2
modifications: disulfide 7-13, 3-17; N-terminus assumed
SMILES: CC(C)[C@@H]1NC(=O)[C@H](Cc2ccc(O)cc2)NC(=O)[C@H](Cc2c[nH]c3ccccc23)NC(=O)[C@@H](NC(=O)[C@H](Cc2ccccc2)NC(=O)CN)CSSC[C@@H](C(=O)N[C@@H](CC(N)=O)C(N)=O)NC(=O)[C@H](CCCNC(=N)N)NC(=O)[C@H](CCCNC(=N)N)NC(=O)[C@H](Cc2ccc(O)cc2)NC(=O)[C@@H]2CSSC[C@H](NC1=O)C(=O)N1CCC[C@H]1C(=O)N[C@@H](Cc1c[nH]cn1)C(=O)N[C@H](Cc1ccccc1)C(=O)N[C@@H](Cc1c[nH]cn1)C(=O)N[C@@H](Cc1c[nH]c3ccccc13)C(=O)N2
In test [1], B4 had a coupling of Gαs-SmBit to MC4R-LgBit (nanoluciferase complementation, live cells): EC50 of 0.702 nM and a coupling of Gαs-SmBit to MC4R-LgBit (nanoluciferase complementation, live cells): efficacy above that of α-MSH (% more efficacious than α-MSH) of 25. Further, the recruitment of β-arrestin-2-nanoluciferase to MC4R-EGFP (kinetic BRET, HEK293 cells), 10 μM peptide: BRET efficiency relative to NDP-α-MSH (100) in test [3] is over 130%. Besides, in test [5], the recruitment of β-arrestin-2-LgBit to MC4R-SmBit (nanoluciferase complementation, live cells): EC50 is 25.2 nM and the recruitment of β-arrestin-2-LgBit to MC4R-SmBit (nanoluciferase complementation, live cells): increase in efficacy (Emax) over α-MSH (% increase in efficacy compared to α-MSH) came out at 82. Also, in test [4], the cAMP accumulation (Cisbio HTRF) in HEK293 cells transiently expressing mouse MC4R-EGFP: EC50 worked out at 1 nM and the cAMP accumulation (Cisbio HTRF) in HEK293 cells transiently expressing mouse MC4R-EGFP: Emax (normalised to NDP-α-MSH) was 98%.

B5: protegrin-4-like peptide 1 (peptide)
peptide: RGGRLCYCPH[dF]HWCFCVGR-NH2
modifications: disulfide 8-14, 6-16; N-terminus assumed
SMILES: CC(C)C[C@H](NC(=O)[C@H](CCCNC(=N)N)NC(=O)CNC(=O)CNC(=O)[C@@H](N)CCCNC(=N)N)C(=O)N[C@H]1CSSC[C@@H](C(=O)N[C@H](C(=O)NCC(=O)N[C@@H](CCCNC(=N)N)C(N)=O)C(C)C)NC(=O)[C@H](Cc2ccccc2)NC(=O)[C@@H]2CSSC[C@H](NC(=O)[C@H](Cc3ccc(O)cc3)NC1=O)C(=O)N1CCC[C@H]1C(=O)N[C@@H](Cc1c[nH]cn1)C(=O)N[C@H](Cc1ccccc1)C(=O)N[C@@H](Cc1c[nH]cn1)C(=O)N[C@@H](Cc1c[nH]c3ccccc13)C(=O)N2
For the molecule B5, in test [1], the coupling of Gαs-SmBit to MC4R-LgBit (nanoluciferase complementation, live cells): EC50 is 0.193 nM and the coupling of Gαs-SmBit to MC4R-LgBit (nanoluciferase complementation, live cells): efficacy above that of α-MSH (% more efficacious than α-MSH) is 8.8. This molecule also yielded a recruitment of β-arrestin-2-nanoluciferase to MC4R-EGFP (kinetic BRET, HEK293 cells), 10 μM peptide: BRET efficiency relative to NDP-α-MSH (100) in test [3] of over 130%. In test [5], this molecule displayed a recruitment of β-arrestin-2-LgBit to MC4R-SmBit (nanoluciferase complementation, live cells): EC50 of 23.5 nM and a recruitment of β-arrestin-2-LgBit to MC4R-SmBit (nanoluciferase complementation, live cells): increase in efficacy (Emax) over α-MSH (% increase in efficacy compared to α-MSH) of 99. In test [4], the cAMP accumulation (Cisbio HTRF) in HEK293 cells transiently expressing mouse MC4R-EGFP: EC50 was 3.7 nM and the cAMP accumulation (Cisbio HTRF) in HEK293 cells transiently expressing mouse MC4R-EGFP: Emax (normalised to NDP-α-MSH) is 96%.
